Measured values reported in patent US20240409647A1, “BISPECIFIC BINDING PROTEINS AGAINST ALARMINS AND USES THEREOF” (SINOMAB BIOSCIENCE LIMITED, priority 2022, published 2024).
Values joined by “and” are separate entries in the source; they are usually repeats but may differ in a detail not shown here. Equal values may be shown once.

Experiments:
IL-17RB [1] = molecular target: T1, IL-17RB (Homo sapiens, UniProt Q9NRM6); test: ELISA, SM17 binding to coated IL-17RB protein (human); conditions: two wells
T1 construct: purchased R&D systems
T1 sequence (Q9NRM6 18-502): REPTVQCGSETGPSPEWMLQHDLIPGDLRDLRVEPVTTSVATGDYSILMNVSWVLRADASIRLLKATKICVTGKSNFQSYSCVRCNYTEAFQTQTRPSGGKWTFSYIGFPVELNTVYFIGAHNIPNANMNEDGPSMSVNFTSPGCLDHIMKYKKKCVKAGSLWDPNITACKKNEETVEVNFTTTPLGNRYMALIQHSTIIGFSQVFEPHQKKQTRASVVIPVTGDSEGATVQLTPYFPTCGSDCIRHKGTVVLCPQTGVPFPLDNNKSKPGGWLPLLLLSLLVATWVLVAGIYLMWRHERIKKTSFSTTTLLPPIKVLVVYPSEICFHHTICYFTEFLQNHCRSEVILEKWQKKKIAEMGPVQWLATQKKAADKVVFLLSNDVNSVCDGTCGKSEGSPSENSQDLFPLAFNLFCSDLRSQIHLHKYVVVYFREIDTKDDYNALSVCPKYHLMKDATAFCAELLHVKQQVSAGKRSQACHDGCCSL
Description: A standard enzyme-linked immunosorbent assay (ELISA) method was used to determine the species specificity of SM17 against IL-17RB proteins. Briefly, IL-17RB proteins from human, mouse, cynomolgus or rhesus monkey (R&D systems, Minneapolis, MN) were diluted to 2.5 μg/ml in PBS and 50 μl of IL-17RB proteins were added to each well of ELISA strip. The strips were sealed with parafilm and incubated at 4° C. overnight for coating.
On the next day, strips were washed thrice with washing buffer (0.05% Tween 20 in PBS) and blocked with 100 μl per well with blocking buffer (3% BSA in PBS) for 2 hours RT before serially diluted SM17 (at a final concentration of 10, 2, 0.4, 0.08, 0.016, 0.0032, and 0.00064 μg/ml, respectively) was added.

[2] = molecular target: T2, human IL17RB expressed on HEK293 cells (Homo sapiens, UniProt Q9NRM6); test: Flow cytometry, SM17 binding to HEK293 transfected with human IL-17RB; conditions: SM17 1 μg/ml
T2 construct: transfected either with full-length human or rhesus monkey IL-17RB (SinoBiological, Beijing, China); host or cells: HEK293
T2 sequence (Q9NRM6 18-502): T1 sequence (Q9NRM6 18-502)
Description: HEK293 cells (ATCC, Manassas, VA) transfected either with full-length human or rhesus monkey IL-17RB (SinoBiological, Beijing, China) were examined for binding to SM17 following standard protocol for flow cytometry. Wild-type HEK293 stained with IgG4 isotype control (Sino Biological) was used as the negative control and for gating purpose. Briefly, HEK293 cells at a density of 3×10^5 cells were seeded into each well of a 6-well plate. On the next day, human or rhesus Il-17RB full length cDNA were first cloned into pCMV3-untagged expression plasmid through standard molecular cloning technique, and then expression plasmids for human or rhesus IL-17RB were transfected into HEK293 cells by lipofection (Lipofectamine 3000 reagent; Thermo Fisher Scientific). Transfected cells were trypsinized, harvested, and fixed with 4% paraformaldehyde (5 minutes). SM17, or human IgG4 control at 1 μg/ml in washing buffer (3% BSA in PBS) were added to the resuspend cells for incubation at RT for 30 min before Alexa Fluor® 647-conjugated goat anti-human IgG specific antibody (1:2000 dilution in washing buffer) (Jackson ImmunoResearch) was added for flow cytometry analysis using the BD FACSVerse cell analyzer (Becton Dickenson, Franklin Lakes, NJ).

Cyno-IL17RB = test: Bio-Layer Interferometry (Octet), SM17 binding kinetics to cynomolgus IL17RB; parameters: species or system cynomolgus monkey; conditions: trials 1 and 2
Description: Bio-Layer Interferometry analysis (Octet ReD96 system, Sartorius) was employed to determine the binding affinity of SM17 against human and cynomolgus monkey IL17RB protein (R&D systems). Briefly, SM17 (20 μg/mL) was immobilized on biosensors via interactions with anti-human Fab CH1; serially diluted Cyno-IL17RB and Human-IL17RB (at a concentration of 158.7 nM, 79.4 nM and 39.7 nM, respectively) were subsequently added following standard operation protocols of the Octet ReD96 system to plot out the association and dissociation curve. Irrelevant antibody (SM03, anti-human CD22 chimeric IgG1 antibody, SinoMab BioScience Limited) was used as the control reference. Of note, the KD is within picomolar-single digit nanomolar range.

IL-17RB [3] = molecular target: T1, IL-17RB; test: ELISA, antigen binding specificity of bsBp (IL-17RB); parameters: key: −: no binding; +: weak; ++: moderate; +++: strong binding; N/A refers to no binding affinity; conditions: 33.5 nM; antigen coated at 2 μg/mL
Description: Binding specificities of bsBp were evaluated by standard ELISA assays. Briefly, ELISA strips were coated with the respective target antigens, including IL17RB, IL-33, or TSLP (R&D systems) at a final concentration of 2 μg/mL. Bispecific antibodies were added at 33.5 nM to ELISA strips coated with the desired antigen. After incubation under room temperature for 2 hours, ELISA strips were washed five times with PBS. […] No result is provided for SM17-human TSLPR as the yield was too low to be detected.

TSLP = molecular target: T3, TSLP (Homo sapiens, UniProt Q969D9); test: Bio-Layer Interferometry (Octet), binding kinetics of bsBp to human TSLP
T3 construct: purchased R&D systems
Description: The binding affinity of bsBp to the targeted alarmins was determined using a bio-Layer Interferometry analysis (Octet ReD96 system, Sartorius). bsBp or SM17 (20 μg/mL) was immobilized on biosensors via binding to anti-human Fab CH1 region; serially diluted human IL33 and TSLP (158.7 nM, 79.4 nM, 39.7 nM) (R&D systems) were added to plot the association and dissociation curve according to the manufacturer's specification. Biosensors immobilized with irrelevant antibody (SM03, anti-human CD22 chimeric IgG1 antibody, SinoMab BioScience Limited, 20 μg/mL) were used as control reference.

[4] = test system: Th2 cell population in human PBMC; test: Th2 cell population in human PBMC culture (flow cytometry); format: cell-based; parameters: key: −: no inhibition; +: weak; ++: moderate; +++: strong inhibition; conditions: IL-2 (10 unit/mL) and three alarmins (10 ng/ml), 5 days
From the text: While alarmins are known to work in concert to enhance ILC2 and Th2 cell functions such as increase in cell population, steroids such as Dexamethasone (Dex) can negate these effects, resulting in the mitigation of type 2 immune responses [Jia, Yi et al. American Journal Of Respiratory Cell And Molecular Biology, vol. 55, 5 (2016): 675-683]. ILC2 and Th2 cell population can be determined by flow cytometry (BD FACSVerse) following standard procedures known to those skilled in the art.

- OD 450 nm Absorption, human IL17RB (IL-17RB [1]; SM17 0.016 μg/mL): 0.17
- OD 450 nm Absorption, human IL17RB (IL-17RB [1]; SM17 0.08 μg/mL): 0.58 and 0.44
- OD 450 nm Absorption, human IL17RB (IL-17RB [1]; SM17 0.4 μg/mL): 1.10 and 1.14
- OD 450 nm Absorption, human IL17RB (IL-17RB [1]; SM17 2 μg/mL): 1.74 and 1.61
- OD 450 nm Absorption, human IL17RB (IL-17RB [1]; SM17 10 μg/mL): 1.82 and 1.88
- binding of SM17 to hIL17RB-HEK293 [2]: 46%
- Ka (Cyno-IL17RB): 32100 M⁻¹ s⁻¹ and 42100 M⁻¹ s⁻¹
- Kdis (Cyno-IL17RB): 2.73e-05 s⁻¹ and 0.000215 s⁻¹
- Intensity of specific antigen binding, IL-17RB coated on ELISA strips (IL-17RB [3]): +++
- Kdis (TSLP): 0.001 s⁻¹
- Ka (TSLP; bsBp or SM17 immobilized at 20 μg/mL): 10000 M⁻¹ s⁻¹
Substance: SM17: humanized anti-IL17RB monoclonal antibody, human IgG4 isotype; HC SEQ ID NO: 32, LC SEQ ID NO: 33
- Cell proliferation inhibition, Th2 [4]: +++
